Where two headings read alike, the source gives them in different places.
T1: FLAG-hRad9 (human, UniProt Q99638 1-391)
T1 sequence (looked up): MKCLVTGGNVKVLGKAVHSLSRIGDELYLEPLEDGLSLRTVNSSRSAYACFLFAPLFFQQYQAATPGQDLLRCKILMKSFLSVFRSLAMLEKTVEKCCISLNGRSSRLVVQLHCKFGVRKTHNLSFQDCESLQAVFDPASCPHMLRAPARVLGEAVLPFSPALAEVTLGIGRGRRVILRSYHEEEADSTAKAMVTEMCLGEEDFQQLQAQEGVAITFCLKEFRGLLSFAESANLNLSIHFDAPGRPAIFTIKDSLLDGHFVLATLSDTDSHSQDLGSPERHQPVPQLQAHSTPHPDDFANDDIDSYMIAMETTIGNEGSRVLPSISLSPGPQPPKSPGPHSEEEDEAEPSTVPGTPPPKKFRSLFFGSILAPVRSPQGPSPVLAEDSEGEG

B1: FLAG-hRad1 (natural protein, human, UniProt O60671 1-282, looked up)
chain: MPLLTQQIQDEDDQYSLVASLDNVRNLSTILKAIHFREHATCFATKNGIKVTVENAKCVQANAFIQAGIFQEFKVQEESVTFRINLTVLLDCLSIFGSSPMPGTLTALRMCYQGYGYPLMLFLEEGGVVTVCKINTQEPEETLDFDFCSTNVINKIILQSEGLREAFSELDMTSEVLQITMSPDKPYFRLSTFGNAGSSHLDYPKDSDLMEAFHCNQTQVNRYKISLLKPSTKALVLSCKVSIRTDNRGFLSLQYMIRNEDGQICFVEYYCCPDEEVPESES
B2: GST-hRad1 (natural protein, human, UniProt O60671 1-282, looked up)
chain: MPLLTQQIQDEDDQYSLVASLDNVRNLSTILKAIHFREHATCFATKNGIKVTVENAKCVQANAFIQAGIFQEFKVQEESVTFRINLTVLLDCLSIFGSSPMPGTLTALRMCYQGYGYPLMLFLEEGGVVTVCKINTQEPEETLDFDFCSTNVINKIILQSEGLREAFSELDMTSEVLQITMSPDKPYFRLSTFGNAGSSHLDYPKDSDLMEAFHCNQTQVNRYKISLLKPSTKALVLSCKVSIRTDNRGFLSLQYMIRNEDGQICFVEYYCCPDEEVPESES
B3: GST-hHus1 (natural protein, human, UniProt O60921 1-280, looked up)
chain: MKFRAKIVDGACLNHFTRISNMIAKLAKTCTLRISPDKLNFILCDKLANGGVSMWCELEQENFFNEFQMEGVSAENNEIYLELTSENLSRALKTAQNARALKIKLTNKHFPCLTVSVELLSMSSSSRIVTHDIPIKVIPRKLWKDLQEPVVPDPDVSIYLPVLKTMKSVVEKMKNISNHLVIEANLDGELNLKIETELVCVTTHFKDLGNPPLASESTHEDRNVEHMAEVHIDIRKLLQFLAGQQVNPTKALCNIVNNKMVHFDLLHEDVSLQYFIPALS
B4: FLAG-hHus1 (natural protein, human, UniProt O60921 1-280, looked up)
chain: MKFRAKIVDGACLNHFTRISNMIAKLAKTCTLRISPDKLNFILCDKLANGGVSMWCELEQENFFNEFQMEGVSAENNEIYLELTSENLSRALKTAQNARALKIKLTNKHFPCLTVSVELLSMSSSSRIVTHDIPIKVIPRKLWKDLQEPVVPDPDVSIYLPVLKTMKSVVEKMKNISNHLVIEANLDGELNLKIETELVCVTTHFKDLGNPPLASESTHEDRNVEHMAEVHIDIRKLLQFLAGQQVNPTKALCNIVNNKMVHFDLLHEDVSLQYFIPALS
B5: His-tagged hHus1 (natural protein, human, UniProt O60921 1-280, looked up)
chain: MKFRAKIVDGACLNHFTRISNMIAKLAKTCTLRISPDKLNFILCDKLANGGVSMWCELEQENFFNEFQMEGVSAENNEIYLELTSENLSRALKTAQNARALKIKLTNKHFPCLTVSVELLSMSSSSRIVTHDIPIKVIPRKLWKDLQEPVVPDPDVSIYLPVLKTMKSVVEKMKNISNHLVIEANLDGELNLKIETELVCVTTHFKDLGNPPLASESTHEDRNVEHMAEVHIDIRKLLQFLAGQQVNPTKALCNIVNNKMVHFDLLHEDVSLQYFIPALS

What was measured:
[1] = biological target: T1, FLAG-hRad9; experiment: SEC
[2] = biological target: GST-hNEIL1 (residues 1–390) (human, UniProt Q96FI4 1-390); experiment: pull-down
[3] = biological target: T2, processed intact hNEIL1 (residues 2–390) (human, UniProt Q96FI4 2-390); experiment: pull-down
[4] = biological target: T3, hNEIL1-CΔ40 (residues 2–350) (human, UniProt Q96FI4 2-350); experiment: pull-down
[5] = biological target: B1; experiment: SEC
[6] = biological target: T2, processed intact hNEIL1 (residues 2–390); experiment: pull-down; remark: listed apart in the source
[7] = biological target: T3, hNEIL1-CΔ40 (residues 2–350); experiment: pull-down; remark: listed apart in the source

T2 sequence (Q96FI4 2-390): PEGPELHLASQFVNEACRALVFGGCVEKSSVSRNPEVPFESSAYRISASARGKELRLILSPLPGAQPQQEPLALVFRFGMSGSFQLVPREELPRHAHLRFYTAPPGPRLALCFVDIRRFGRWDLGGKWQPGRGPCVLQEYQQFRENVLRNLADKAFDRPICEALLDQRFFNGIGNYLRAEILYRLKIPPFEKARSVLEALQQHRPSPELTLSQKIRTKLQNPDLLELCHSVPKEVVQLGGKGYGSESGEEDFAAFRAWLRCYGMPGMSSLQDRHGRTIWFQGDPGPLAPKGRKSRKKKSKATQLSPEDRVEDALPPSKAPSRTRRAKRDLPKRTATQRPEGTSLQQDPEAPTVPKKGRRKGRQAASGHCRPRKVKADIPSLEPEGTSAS
T3 sequence (Q96FI4 2-350, stated change not applied): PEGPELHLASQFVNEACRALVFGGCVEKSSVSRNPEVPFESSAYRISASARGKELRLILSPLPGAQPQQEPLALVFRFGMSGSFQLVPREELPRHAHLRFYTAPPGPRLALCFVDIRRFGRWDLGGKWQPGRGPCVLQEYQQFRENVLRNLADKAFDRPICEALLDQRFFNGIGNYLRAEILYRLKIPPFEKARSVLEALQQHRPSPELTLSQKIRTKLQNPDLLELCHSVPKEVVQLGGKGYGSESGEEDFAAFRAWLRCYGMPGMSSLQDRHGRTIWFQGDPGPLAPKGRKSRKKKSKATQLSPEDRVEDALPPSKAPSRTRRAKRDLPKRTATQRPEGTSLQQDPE
GST-hNEIL1 (residues 1–390), sequence (Q96FI4 whole entry, the tested form may be a part): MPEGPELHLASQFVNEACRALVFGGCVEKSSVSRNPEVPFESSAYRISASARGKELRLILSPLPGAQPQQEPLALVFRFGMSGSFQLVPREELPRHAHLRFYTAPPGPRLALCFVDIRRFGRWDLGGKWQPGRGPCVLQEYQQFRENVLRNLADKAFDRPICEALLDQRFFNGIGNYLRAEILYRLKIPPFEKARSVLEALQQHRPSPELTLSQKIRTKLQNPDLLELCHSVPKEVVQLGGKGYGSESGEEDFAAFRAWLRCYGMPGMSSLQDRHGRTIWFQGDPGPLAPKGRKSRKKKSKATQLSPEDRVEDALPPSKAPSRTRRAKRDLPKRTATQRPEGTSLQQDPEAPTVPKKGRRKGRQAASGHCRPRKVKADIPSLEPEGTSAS

| Binder | binding result [1] | binding result [2] | binding result [3] | binding result [4] | further results |
| --- | --- | --- | --- | --- | --- |
| B1 | binds | binds | – | – | – |
| B2 | – | – | binds | binds | – |
| B3 | – | – | binds | binds | – |
| B4 | binds | binds | – | – | binding result [5]: binds |
| B5 | – | – | – | – | binding result [6]: binds; binding result [7]: binds |

Reference: paper PMC1885643 (Nucleic Acids Research, 2007)
